Assays:
[1] = Variation in body weight as an indication of toxicity, Colon 26 tumor-bearing mice; assay type: in vivo, mouse
Protocol: Mouse colon cancer Colon 26 tumor under successive cultivation under mouse skin was cut into blocks of approximately 2 mm square, and transplanted to under mouse skin using a trochar. […] As an indication of toxicity, variation in body weight was also measured (Table 2).

[2] = system: Mouse colon cancer Colon 26 tumor; assay: Antitumor action, relative tumor volume after single intravenous administration; assay type: in vivo; conditions: with smaller administration amount; single i.v. administration
Protocol: As an indication of toxicity, variation in body weight was also measured (Table 2).

Substance: condensate of a block copolymer of methoxypolyethylene glycol having a molecular weight of approximately 12000 and polyglutamic acid having a polymerization number of approximately 28, with 7-ethyl-10-hydroxycamptothecin [Compound 1]
- variation in body weight ([1]; dose 22.5 mg/kg i.v. once, day 0 after administration): 1.0
- variation in body weight ([1]; dose 22.5 mg/kg i.v. once, day 2 after administration): 0.98
- variation in body weight ([1]; dose 22.5 mg/kg i.v. once, day 5 after administration): 1.02
- variation in body weight ([1]; dose 22.5 mg/kg i.v. once, day 9 after administration): 1.06
- variation in body weight ([1]; dose 22.5 mg/kg i.v. once, day 12 after administration): 1.03
- variation in body weight ([1]; dose 22.5 mg/kg i.v. once, day 14 after administration): 0.96
- variation in body weight ([1]; dose 45.0 mg/kg i.v. once, day 0 after administration): 1.0
- variation in body weight ([1]; dose 45.0 mg/kg i.v. once, day 2 after administration): 0.94
- variation in body weight ([1]; dose 45.0 mg/kg i.v. once, day 5 after administration): 0.91
- variation in body weight ([1]; dose 45.0 mg/kg i.v. once, day 7 after administration): 0.97
- variation in body weight ([1]; dose 45.0 mg/kg i.v. once, day 12 after administration): 1.03
- variation in body weight ([1]; dose 45.0 mg/kg i.v. once, day 14 after administration): 1.04
- antitumor effect as compared with compound 2 (smaller drug content) [2]: higher antitumor effect

Substance: condensate of a block copolymer of mono-methoxypolyethylene glycol having a molecular weight of approximately 12000 and polyglutamic acid having a polymerization number of approximately 7, with 7-ethyl-10-hydroxycamptothecin [Compound 2]
- variation in body weight ([1]; dose 90.0 mg/kg i.v. once, day 0 after administration): 1.0
- variation in body weight ([1]; dose 90.0 mg/kg i.v. once, day 2 after administration): 0.96
- variation in body weight ([1]; dose 90.0 mg/kg i.v. once, day 5 after administration): 1.00
- variation in body weight ([1]; dose 90.0 mg/kg i.v. once, day 12 after administration): 0.90
- variation in body weight ([1]; dose 90.0 mg/kg i.v. once, day 14 after administration): 0.83
- variation in body weight ([1]; dose 180.0 mg/kg i.v. once, day 0 after administration): 1.0
- variation in body weight ([1]; dose 180.0 mg/kg i.v. once, day 2 after administration): 0.91
- variation in body weight ([1]; dose 180.0 mg/kg i.v. once, day 5 after administration): 0.99
- variation in body weight ([1]; dose 180.0 mg/kg i.v. once, day 7 after administration): 0.99
- variation in body weight ([1]; dose 180.0 mg/kg i.v. once, day 9 after administration): 1.04
- variation in body weight ([1]; dose 180.0 mg/kg i.v. once, day 12 after administration): 0.94
- variation in body weight ([1]; dose 180.0 mg/kg i.v. once, day 14 after administration): 0.94

Source: patent US20060067910A1, “High-molecular weight derivatives of camptothecins” (priority 2002, published 2006)
